Data on two molecules can be found in patent US8992886B2, “Cyclic peptide analogues for non-invasive imaging of pancreatic beta-cells” (Board of Regents, the University of Texas System, priority 2009, dated 2015).

A short description of data set [1]: in vivo. On the set-up: species or system Sprague-Dawley rats. The settings on record: Sprague-Dawley, rat, iv, total radioactivity. The protocol:
Given this encouraging in vitro result, the tissue distribution of both conjugates in normal Sprague-Dawley rats was examined. […] The radiolabeled compounds were diluted with saline and be injected into rats (n=4 at each time point) via the tail vein. The animal number at each time point was chosen for statistical analysis. […] At the selected post-injection time points, animals were sacrificed, and organs of interest removed, weighed, and counted. The percent injected dose per gram (% ID/g) and percent injected dose per organ (% ID/organ) was calculated by comparison to a weighed, counted standard. Pharmacokinetic parameters were estimated by using either one- or two-compartment model.

Data set [2] deals with GLP-1R (Homo sapiens, UniProt P43220). Kind of data set: cAMP accumulation in HEK293 cells stably expressing GLP-1R-GFP. Type of data set: cell-based. On the set-up: GFP; expressed in transfected cells; host or cells: HEK293. From the text:
In all cases, reactions were stopped with 1.2 M trichloroacetic acid and cAMP was isolated by the two column chromatographic method.

Bridge positions count the residues as written; N and C are the ends. Square brackets hold non-standard residues; d marks the D form. Peptide text beside a SMILES is read from it. * marks the point of attachment. X1 = O=C(O)CN1CCN(CC(=O)O)CCN(CC(=O)NCCN2C(=O)CC(*)C2=O)CCN(CC(=O)O)CC1; Ahx = NCCCCCC(=O)O

GLP-1R, sequence (P43220 24-463): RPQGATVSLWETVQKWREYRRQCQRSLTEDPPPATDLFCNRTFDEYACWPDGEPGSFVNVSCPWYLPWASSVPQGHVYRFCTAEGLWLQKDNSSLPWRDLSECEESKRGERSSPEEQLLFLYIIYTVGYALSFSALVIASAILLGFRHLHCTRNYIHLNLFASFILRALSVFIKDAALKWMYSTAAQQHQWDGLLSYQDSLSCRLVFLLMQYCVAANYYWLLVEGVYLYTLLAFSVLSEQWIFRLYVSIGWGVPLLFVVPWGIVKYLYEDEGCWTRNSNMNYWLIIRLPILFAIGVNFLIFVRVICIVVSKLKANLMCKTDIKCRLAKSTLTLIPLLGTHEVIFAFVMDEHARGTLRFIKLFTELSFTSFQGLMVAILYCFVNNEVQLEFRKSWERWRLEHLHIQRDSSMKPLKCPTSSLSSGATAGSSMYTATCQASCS

For the molecule `CC[C@H](C)[C@H](NC(=O)[C@H](Cc1ccccc1)NC(=O)[C@H](CCC(=O)O)NC(=O)[C@H](CCCCN)NC(=O)[C@H](C)NC(=O)[C@H](C)NC(=O)[C@H](CCC(N)=O)NC(=O)CNC(=O)[C@H](CCC(=O)O)NC(=O)[C@H](CC(C)C)NC(=O)[C@H](Cc1ccc(O)cc1)NC(=O)[C@H](CO)NC(=O)[C@H](CO)NC(=O)[C@@H](NC(=O)[C@H](CC(=O)O)NC(=O)[C@H](CO)NC(=O)[C@@H](NC(=O)[C@H](Cc1ccccc1)NC(=O)[C@@H](NC(=O)CNC(=O)[C@H](CCC(=O)O)NC(=O)[C@H](C)NC(=O)[C@@H](N)Cc1c[nH]cn1)[C@@H](C)O)[C@@H](C)O)C(C)C)C(=O)N[C@@H](C)C(=O)N[C@@H](Cc1c[nH]c2ccccc12)C(=O)N[C@@H](CC(C)C)C(=O)N[C@H](C(=O)N[C@@H](CCCCN)C(=O)NCC(=O)N[C@@H](CCCNC(=N)N)C(=O)NCCCCCC(=O)N[C@@H](CSC1CC(=O)N(CCNC(=O)CN2CCN(CC(=O)O)CCN(CC(=O)O)CCN(CC(=O)O)CC2)C1=O)C(N)=O)C(C)C` (stereo partly drawn) (64Cu complex, metal not drawn) [L-GLP-1, [Ala^8]GLP-1-Ahx-Cys], the tissue uptake at 20 min in data set [1] (% ID/g blood) was 0.78 ± 0.14 %ID/g; in data set [1] (% ID/g fat) it was 0.35 ± 0.1 %ID/g; in data set [1] (% ID/g heart), 0.39 ± 0.23 %ID/g; in data set [1] (% ID/g kidney), 30.6 ± 6.76 %ID/g; in data set [1] (% ID/g large int), 0.19 ± 0.1 %ID/g; in data set [1] (% ID/g liver), 1.13 ± 0.42 %ID/g. Also, the tissue uptake at 20 min in data set [1] (% ID/g lung) turned out to be 1.92 ± 0.08 %ID/g; in data set [1] (% ID/g muscle), 0.12 ± 0.01 %ID/g; in data set [1] (% ID/g pancreas) it was 0.34 ± 0.14 %ID/g; in data set [1] (% ID/g small int), 0.38 ± 0.21 %ID/g; in data set [1] (% ID/g spleen), 0.28 ± 7 %ID/g; in data set [1] (% ID/g stomach), 0.64 ± 0.28 %ID/g. Moreover, the tissue uptake at 1 h in data set [1] (% ID/g blood) amounted to 0.47 ± 0.03 %ID/g; in data set [1] (% ID/g heart), 0.11 ± 0.1 %ID/g; in data set [1] (% ID/g kidney) it was 34.3 ± 5.42 %ID/g; in data set [1] (% ID/g large int) it was 0.04 ± 0.04 %ID/g; in data set [1] (% ID/g liver), 2.03 ± 0.25 %ID/g; in data set [1] (% ID/g lung), 0.9 ± 0.14 %ID/g. Moreover, the tissue uptake at 1 h is 0.11 ± 0.11 %ID/g in data set [1] (% ID/g pancreas), 0.45 ± 0.24 %ID/g in data set [1] (% ID/g small int), 0.18 ± 0.08 %ID/g in data set [1] (% ID/g spleen) and 0.46 ± 0.28 %ID/g in data set [1] (% ID/g stomach). Besides, the tissue uptake at 4 h in data set [1] (% ID/g blood) stood at 0.62 ± 0.15 %ID/g; in data set [1] (% ID/g fat), 0.72 ± 0.57 %ID/g; in data set [1] (% ID/g heart) it was 0.2 ± 0.06 %ID/g; in data set [1] (% ID/g kidney), 41.4 ± 4.98 %ID/g; in data set [1] (% ID/g large int) it was 0.67 ± 0.47 %ID/g; in data set [1] (% ID/g liver), 3.34 ± 0.58 %ID/g. For the same molecule, the tissue uptake at 4 h was found to be 1.02 ± 0.13 %ID/g in data set [1] (% ID/g lung); 0.4 ± 0.56 %ID/g in data set [1] (% ID/g pancreas); 0.93 ± 0.43 %ID/g in data set [1] (% ID/g small int); 0.4 ± 0.35 %ID/g in data set [1] (% ID/g spleen); 0.5 ± 0.15 %ID/g in data set [1] (% ID/g stomach). Besides, the tissue uptake at 24 h in data set [1] (% ID/g blood) amounted to 0.07 ± 0.07 %ID/g; in data set [1] (% ID/g fat) it was 0.01 ± 0.01 %ID/g; in data set [1] (% ID/g kidney), 45.8 ± 2.94 %ID/g; in data set [1] (% ID/g large int), 4.83 ± 1.16 %ID/g; in data set [1] (% ID/g liver), 1.43 ± 0.21 %ID/g; in data set [1] (% ID/g lung), 0.83 ± 0.18 %ID/g. Besides, the tissue uptake at 24 h in data set [1] (% ID/g muscle) came to 0.08 ± 0.1 %ID/g; in data set [1] (% ID/g pancreas), 0.03 ± 0.06 %ID/g; in data set [1] (% ID/g small int), 0.42 ± 0.16 %ID/g; in data set [1] (% ID/g spleen) it was 0.38 ± 0.47 %ID/g; in data set [1] (% ID/g stomach), 0.11 ± 0.04 %ID/g.

`CC[C@H](C)[C@H](NC(=O)[C@H](Cc1ccccc1)NC(=O)[C@H](CCC(=O)O)NC(=O)[C@H](CCCCN)NC(=O)[C@H](C)NC(=O)[C@H](C)NC(=O)[C@H](CCC(N)=O)NC(=O)CNC(=O)[C@H](CCC(=O)O)NC(=O)[C@@H]1CCCCNC(=O)CC[C@H](NC(=O)[C@H](CC(=O)O)NC(=O)[C@H](CO)NC(=O)[C@@H](NC(=O)[C@H](Cc2ccccc2)NC(=O)[C@@H](NC(=O)CNC(=O)[C@H](CCC(=O)O)NC(=O)[C@@H](C)NC(=O)[C@@H](N)Cc2c[nH]cn2)[C@@H](C)O)[C@@H](C)O)C(=O)N[C@@H](CO)C(=O)N[C@@H](CO)C(=O)N[C@@H](Cc2ccc(O)cc2)C(=O)N1)C(=O)N[C@H]1CCC(=O)NCCCC[C@@H](C(=O)NCC(=O)N[C@@H](CCCNC(=N)N)C(=O)NCCCCCC(=O)N[C@@H](CSC2CC(=O)N(CCNC(=O)CN3CCN(CC(=O)O)CCN(CC(=O)O)CCN(CC(=O)O)CC3)C2=O)C(N)=O)NC(=O)[C@H](C(C)C)NC(=O)[C@H](CC(C)C)NC(=O)[C@H](Cc2c[nH]c3ccccc23)NC1=O` (stereo partly drawn) [EM2196, HXEGTFTSDESSYKEGQAAKEFIEWLVKG R, wherein X is D-Ala] (H-H[dA]EGTFTSDESSYKEGQAAKEFIEWLVKGR[Ahx]C(X1)-NH2; lactam 10-14, 24-28): the EC50 in data set [2] was about 1 nM.
